Assays:
[1] = target: His6-PA3027 (Pseudomonas aeruginosa PAO1161) (UniProt Q9HZH9); assay: cross-linking; purified His6-PA3027 cross-linked with increasing concentration of glutaraldehyde; Western blot with anti-His antibodies
[2] = target: His6-PA3027 (Pseudomonas aeruginosa PAO1161) (UniProt Q9HZH9); assay: SEC-MALS; 100 uL of 1 mg/mL His6-PA3027 on Superdex 200 Increase 10/300 in Buffer S (20 mM MES pH 6.5, 200 mM (NH4)2SO4, 200 mM NaCl), room temperature, 0.5 mL/min; monomer and dimer

**Q.** For “His6-PA3027 (from UniProt Q9HZH9 1-343) (natural protein)”, which stoichiometry N [1] is on record?
**A.** 2

**Q.** What about the stoichiometry N [2] of the same substance?
**A.** 2

From article PMC8151288
